For the assay, the target named is Avi-tagged-eIF4E (human, UniProt P06730 1-217, biotin (co-transfected bacterial biotin ligase BirA; loaded on streptavidin tips)). In words: BLI. (In BLI a coated tip is dipped into the sample, and binding shifts an interference pattern.)
Chain of Avi-tagged-eIF4E (P06730 whole entry): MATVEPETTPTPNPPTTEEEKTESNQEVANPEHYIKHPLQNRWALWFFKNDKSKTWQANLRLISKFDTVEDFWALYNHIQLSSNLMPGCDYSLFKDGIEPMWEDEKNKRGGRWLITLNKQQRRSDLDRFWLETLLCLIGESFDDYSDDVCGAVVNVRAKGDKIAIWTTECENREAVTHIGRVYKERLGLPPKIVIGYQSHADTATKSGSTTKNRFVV

B1: Pep8 peptide (peptide)
peptide: YPYAASPA
Turning to B1, the dissociation constant Kd was found to be 25 µM.

By Kd is commonly meant the concentration at which binding is half-saturated. A lower Kd goes with higher affinity.

For the origin of these results see article PMC10866396 (Molecular cancer therapeutics, 2023).
